Reference: paper PMC6151454, “The Recognition of Calmodulin to the Target Sequence of Calcineurin—A Novel Binding Mode” (Molecules : A Journal of Synthetic Chemistry and Natural …, 2017)

Molecular target: Calmodulin (CaM), chicken, recombinant (chicken, UniProt P62149 2-149)
Experiment: circular dichroism titration; various amounts of CaNp added to a fixed amount of CaM; far-UV CD; 100 mM KCl, 2 mM CaCl2, pH 6.5
Settings: both partners purified

B1: CaM-binding domain (target peptide) of calcineurin A, residues 391-414 (CaNp) (peptide)
peptide: ARKEVIRNKIRAIGKMARVFSVLR
notes: CaM target domain of the calcineurin catalytic subunit (CaN-A) α-isoform, residue 391-414; 13C,15N-labelled or unlabelled in the NMR samples; also called target peptide of CaN; not shown: CaM with factor Xa cleavage site IEGR (CaM-CaNp hybrid molecule), N-terminal, cleaved
stoichiometry N: 1
